Data reported in US20210063395.
Where two headings read alike, the source gives them in different places.

How the values were obtained:
gliadin [1] = settings: Gli4-FAM-PEG-rGO/Q-glia fluorescence at 520 nm; differs from Table 1 value
gliadin [2] = settings: Gli4-FAM-PEG-rGO/Q-glia fluorescence recovery at 520 nm, 100 nM aptamer; SE 0.1912; p66 gives about 0.11 ppm
[3] = tested on: Q-gliadin (gliadin-BHQ-1 quencher conjugate); settings: Gli4-FAM-PEG-rGO fluorescence at 520 nm; SE 0.02
[4] = tested on: lactose protein (as named; milk protein presumably); settings: Gli4-FAM-PEG-rGO/Q-glia fluorescence at 520 nm; specificity control

With “CCAGTCTCCCGTTTACCGCGCCTACACATGTCTGAATGCC [Gli4-FAM]” the Kd (gliadin [1]) was 0.11 ppm, the Kd (gliadin [2]) was 0.76 ppm and the Kd [3] was 148 ppm. For the same sequence, the Kd [4] was 13.2 ppm.
